From doi:10.1101/786475 (bioRxiv, 2019)

Assays:
Experiment in all cases: peptide or protein array
[1] = target: T1, Drs1p (spotted on the yeast ProtoArray) (S. cerevisiae, UniProt P32892 1-752)
T1 sequence (looked up): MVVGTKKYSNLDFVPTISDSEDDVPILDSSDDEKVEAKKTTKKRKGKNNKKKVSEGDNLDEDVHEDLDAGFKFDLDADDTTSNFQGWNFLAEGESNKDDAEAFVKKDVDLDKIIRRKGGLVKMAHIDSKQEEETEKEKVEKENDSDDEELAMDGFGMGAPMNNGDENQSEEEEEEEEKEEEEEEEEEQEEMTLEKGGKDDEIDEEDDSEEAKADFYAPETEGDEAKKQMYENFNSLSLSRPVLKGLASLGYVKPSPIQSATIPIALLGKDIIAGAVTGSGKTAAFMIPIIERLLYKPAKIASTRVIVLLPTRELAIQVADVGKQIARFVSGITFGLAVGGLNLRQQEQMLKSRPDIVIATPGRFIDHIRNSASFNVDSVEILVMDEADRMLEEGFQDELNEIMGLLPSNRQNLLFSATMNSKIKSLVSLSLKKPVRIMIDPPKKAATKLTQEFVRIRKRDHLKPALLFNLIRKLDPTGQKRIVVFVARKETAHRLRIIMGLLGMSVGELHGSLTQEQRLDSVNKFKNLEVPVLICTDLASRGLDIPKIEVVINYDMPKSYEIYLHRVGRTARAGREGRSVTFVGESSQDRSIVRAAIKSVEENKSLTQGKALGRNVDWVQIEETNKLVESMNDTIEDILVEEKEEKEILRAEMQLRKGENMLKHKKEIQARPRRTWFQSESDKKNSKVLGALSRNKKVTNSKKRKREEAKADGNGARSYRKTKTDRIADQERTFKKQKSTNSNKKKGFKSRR

[2] = target: Mal12p (spotted on the yeast ProtoArray) (S. cerevisiae, UniProt P53341 1-584)
Mal12p (spotted on the yeast ProtoArray), sequence (P53341 whole entry): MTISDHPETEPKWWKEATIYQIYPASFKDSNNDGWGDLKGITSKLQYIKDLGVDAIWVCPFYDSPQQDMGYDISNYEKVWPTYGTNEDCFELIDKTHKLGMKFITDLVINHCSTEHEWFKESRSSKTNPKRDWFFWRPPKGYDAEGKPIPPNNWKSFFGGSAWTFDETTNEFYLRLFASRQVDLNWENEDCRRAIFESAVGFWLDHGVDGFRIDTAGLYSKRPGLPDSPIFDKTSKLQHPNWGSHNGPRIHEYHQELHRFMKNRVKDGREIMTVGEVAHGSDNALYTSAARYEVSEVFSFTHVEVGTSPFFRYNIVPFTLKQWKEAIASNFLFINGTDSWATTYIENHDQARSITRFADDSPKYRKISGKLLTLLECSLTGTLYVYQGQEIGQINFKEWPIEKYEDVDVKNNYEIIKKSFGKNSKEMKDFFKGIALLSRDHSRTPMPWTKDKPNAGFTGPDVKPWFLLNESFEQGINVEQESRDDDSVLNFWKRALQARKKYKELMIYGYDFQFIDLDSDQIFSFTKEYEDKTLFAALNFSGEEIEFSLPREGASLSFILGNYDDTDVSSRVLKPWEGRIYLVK

[3] = target: Frd1p (spotted on the yeast ProtoArray) (S. cerevisiae, UniProt P32614 1-470)
Frd1p (spotted on the yeast ProtoArray), sequence (P32614 whole entry): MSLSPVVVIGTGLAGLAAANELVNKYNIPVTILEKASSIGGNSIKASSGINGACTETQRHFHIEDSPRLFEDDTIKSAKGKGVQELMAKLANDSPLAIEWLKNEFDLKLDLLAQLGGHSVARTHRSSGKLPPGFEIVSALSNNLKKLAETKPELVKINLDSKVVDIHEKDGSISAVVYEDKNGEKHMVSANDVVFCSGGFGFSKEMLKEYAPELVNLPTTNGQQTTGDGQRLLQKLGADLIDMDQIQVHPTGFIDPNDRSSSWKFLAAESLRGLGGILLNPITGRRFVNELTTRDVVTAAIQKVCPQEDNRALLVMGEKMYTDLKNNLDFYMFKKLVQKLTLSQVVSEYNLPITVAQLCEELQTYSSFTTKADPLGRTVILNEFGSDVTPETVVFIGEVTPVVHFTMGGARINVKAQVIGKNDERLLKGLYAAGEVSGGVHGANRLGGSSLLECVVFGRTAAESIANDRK

[4] = target: T2, Gln1p (spotted on the yeast ProtoArray) (S. cerevisiae, UniProt P32288 1-370)
T2 sequence (looked up): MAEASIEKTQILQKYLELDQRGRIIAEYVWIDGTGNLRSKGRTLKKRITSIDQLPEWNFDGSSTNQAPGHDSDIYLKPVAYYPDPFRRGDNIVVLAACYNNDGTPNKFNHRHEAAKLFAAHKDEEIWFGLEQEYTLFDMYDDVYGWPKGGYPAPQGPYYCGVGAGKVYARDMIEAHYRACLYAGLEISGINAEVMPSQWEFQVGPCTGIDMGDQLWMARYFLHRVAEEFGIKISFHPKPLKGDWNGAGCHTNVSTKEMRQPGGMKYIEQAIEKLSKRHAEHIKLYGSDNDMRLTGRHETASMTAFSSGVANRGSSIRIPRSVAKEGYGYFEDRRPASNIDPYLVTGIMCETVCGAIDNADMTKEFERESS

[5] = target: T3, Nap1p (spotted on the yeast ProtoArray) (S. cerevisiae, UniProt P25293 1-417)
T3 sequence (looked up): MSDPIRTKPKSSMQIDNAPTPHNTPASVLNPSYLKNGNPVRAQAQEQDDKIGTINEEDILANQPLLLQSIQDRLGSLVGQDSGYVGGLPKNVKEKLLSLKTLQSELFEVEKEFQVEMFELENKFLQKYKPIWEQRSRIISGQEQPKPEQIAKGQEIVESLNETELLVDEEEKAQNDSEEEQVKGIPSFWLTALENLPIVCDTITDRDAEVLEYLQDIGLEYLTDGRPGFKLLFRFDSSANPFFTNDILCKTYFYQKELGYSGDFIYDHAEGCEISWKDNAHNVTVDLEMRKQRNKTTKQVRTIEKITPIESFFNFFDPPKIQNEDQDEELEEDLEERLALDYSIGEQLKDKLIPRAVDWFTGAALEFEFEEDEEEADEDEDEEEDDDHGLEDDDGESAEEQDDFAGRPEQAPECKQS

[6] = target: T4, Ski8p (spotted on the yeast ProtoArray) (S. cerevisiae, UniProt Q02793 1-397)
T4 sequence (looked up): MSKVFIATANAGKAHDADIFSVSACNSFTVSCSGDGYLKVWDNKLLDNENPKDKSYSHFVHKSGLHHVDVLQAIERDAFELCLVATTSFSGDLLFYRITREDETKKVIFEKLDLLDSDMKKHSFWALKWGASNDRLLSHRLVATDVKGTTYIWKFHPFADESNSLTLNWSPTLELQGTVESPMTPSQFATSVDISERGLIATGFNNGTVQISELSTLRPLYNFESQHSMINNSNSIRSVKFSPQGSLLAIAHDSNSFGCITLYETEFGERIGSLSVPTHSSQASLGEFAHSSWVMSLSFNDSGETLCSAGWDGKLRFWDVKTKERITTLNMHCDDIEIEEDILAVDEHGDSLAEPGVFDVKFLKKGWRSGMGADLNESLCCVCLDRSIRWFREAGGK

Measured: binding result

B1: purified and biotinylated cytoplasmic domain of the Msb2p protein (HIS-Msb2p^CYT) (domain or fragment, S. cerevisiae, UniProt P32334 1207-1306, looked up)
chain: AFKYIIRRRIQSQEIIKNPEISSISSSEFGGEKNYNNEKRMSVQESITQSMRIQNWMDDSYYGHGLTNNDSTPTRHNTSSSIPKISRPIASQNSLGWNEV
modifications: biotinylated in vitro (sites not given)
binds: all assays above
